Numbering of substitutions follows the chain as printed.

In assay [1] the target is human CD3ε on T cells (human, UniProt P07766 23-207). Briefly: cell-based or functional assay.
The target in assay [2] is cynomolgus CD3ε (recombinant, coupled to the SPR chip) (cynomolgus (Macaca fascicularis)) (UniProt Q95LI5). The experiment in a line: SPR (Biacore T200), CD3ε amine-coupled to CM5 chip, scFv as analyte, 1:1 Langmuir fit. Background: Surface plasmon resonance follows binding to a sensor surface in real time, without labels.

human CD3ε on T cells, sequence (P07766 23-207 limits assumed): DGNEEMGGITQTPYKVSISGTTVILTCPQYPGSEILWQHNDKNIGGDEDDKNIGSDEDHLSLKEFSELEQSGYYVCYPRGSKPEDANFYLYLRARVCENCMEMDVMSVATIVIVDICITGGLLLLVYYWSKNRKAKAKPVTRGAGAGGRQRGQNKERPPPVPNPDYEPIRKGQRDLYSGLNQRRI

B1: PRO389 (IL23R×CD3 1st gen Numab) (bispecific antibody)
chain: DIQMTQSPSSLSASVGDRVTITCQASENIYSFLAWYQQKPGKAPKLLIYSASKLAAGVPSRFSGSGSGTDFTLTISSLQPEDFATYYCQQTNRYSNPDIYNVFGTGTKVTVLGGGGGSEVQLVESGGGLVQPGGSLRLSCAASGFPLSSYAMIWVRQAPGKGLEWIGMILRAGNIYYASWVKGRFTISRDNSKNTVYLQMNSLRAEDTAVYYCARRHYNREGYPIGIGDLWGQGTLVTVSSGGGGSGGGGSGGGGSGGGGSDIQMTQSPSSLSASVGDRVTITCQSSESVYNNKRLSWYQQKPGKAPKLLIYTASSLASGVPSRFSGSGSGTDFTLTISSLQPEDFATYYCQGEFTCSNADCFTFGTGTKVTVLGGGGGSEVQLVESGGGLVQPGGSLRLSCAASGIDFNSNYYMCWVRQAPGKGLEWIGCIYVGSHVNTYYANWAKGRFTISRDNSKNTVYLQMNSLRAEDTAVYYCATSGSSVLYFKFWGQGTLVTVSS
For the molecule B1, the “EC50 of specific target cell lysis (IL-23R-expressing CHO-K1 target cells, human PBMCs, flow cytometry cytotoxicity assay)” value in assay [1] was found to be 0.0053 nM.

B2: 28-21-D09-sc18 (scFv)
scFv: DIQMTQSPSSLSASVGDRVTITCQSSQSVFSNNYLAWYQQKPGQSPKRLIYSASTLASGVPSRFSGSGSGTHFTLTISSLQPEDFATYYCLGSYACSSADCYVFGTGTKVTVLGGGGGSGGGGSGGGGSGGGGSEVQLVESGGGLVQPGGSLRLSCAASGFSLSSYDMSWVRQAPGKGLEWIGASYASGPTYYASWAKGRFTISRDNSKNTVYLQMNSLRAEDTAVYYCARGGWTGTSHSNIWGQGTLVTVSS
Usually Kd stands for the constant that tells how readily two partners part at equilibrium. As for B2, the Kd in assay [2] is 14.2 nM.

B3: 28-21-D09-sc16 (scFv)
scFv: B2 scFv with H72D, V226T, Y228F
In the case of B3, in assay [2], the Kd was found to be 16.6 nM.

B4: 28-21-D09-sc19 (scFv)
scFv: B2 scFv with H72D
In the case of B4, the Kd in assay [2] worked out at 19.5 nM.

B5: 28-21-D09-sc04 (scFv)
scFv: B2 scFv with Y38F, H72D, E180A, V226T, Y228F
As for B5, the Kd in assay [2] amounted to 4.78 nM.

B6: 28-21-D09-sc15 (scFv)
scFv: B2 scFv with V226T, Y228F
Regarding B6, in assay [2], the Kd is 13.7 nM.

Source of the values: patent US20220403028A1 (NUMAB THERAPEUTICS, published 2022).
